# Patent publication US20090291083A1, “BARB4 TARGET, ANTIBODY DESIGNATED BARB4, BARB4 RELATED ANTIBODIES, AND METHODS OF MAKING AND USING SAME” (PATRYS LIMITED, priority 2008, published 2009)
# Legend:
# [1] = tested on: MIAPaCa-2; test: MTT cell proliferation assay (Table 2); assay type: cell-based, human; settings: EC50
# Method: (§1) BARB4 was also evaluated for inhibition of proliferation of other cancer cell lines, including BxPC-3, COLO 205, H460, MDA-MB-231 and MIAPaCa-2 cells, as well as HT-29, HCT-116, BxPC-3, PANC-1, A549, PC-3 and HCT116 cells. In brief, various human cancer cell lines obtained from the American Type Culture Collection (ATCC) were established using standard in vitro culture methods and ATCC recommended media in 175 cm2 BD tissue culture treated flasks. In particular, MDAMB-231 cultures were incubated in a humidified 37° C., 100% air incubator, and BxPC-3, COLO 205, H460 and MIAPaCa-2 cultures were incubated in a humidified 37° C., 5% CO2, 95% air incubator. Cultures were sub-cultivated regularly to maintain log phase growth. All cell lines were brought up from cryopreservation using the original recommended ATCC media type and supplements. Cell line specific seeding densities were based on historical data from MIR Preclinical Services for growth over a 72 hr period.
# (§2) On the day of IC50 plate seeding, the adherent cells were removed from the flasks for each cell line using trypsin EDTA, 1× (Cell Gro #25-053-CI). Trypsin was deactivated using complete media and the cells were pooled (each line done separately). The pooled cells in complete media were counted using trypan blue exclusion with a Neubauer Bright-Line® hemacytometer. The percent viability for each cell line was as follows:
# (§3) Based on live cell counts, each suspension was then diluted in complete media (containing required supplements) to achieve the desired seeding density for each cell line. Once seeded, the cells were allowed to attach to the plates overnight and then treated with BA4 or cisplatin 24 hr post-seeding.
# (§4) BARB4 was serially diluted 1:2 (2× final conc. in dilution reservoir=1600 μg/ml) in media to achieve a final 800 μg/ml starting concentration in the top dosage wells of the treatment plate by diluting 1:2 when transferred from the reservoir to the treatment plate. Antibody was added to columns 1 through 10 of the treatment plate. Column 11 was for cells+media only control and column 12 was for a media only blank. Cisplatin (positive control) was manufactured by Sigma (# M4394, lot 087K1349) and supplied as a fine, dark yellow powder, in an amber vial, stored at room temperature and housed in a covered box to prevent exposure to light. Cisplatin was previously dissolved in 0.9% saline to make a clear, colorless 4 mM stock solution, aliquoted and frozen at −20° C. Frozen aliquots were quickly thawed by holding the tubes in hand, placed on wet ice and diluted (2× conc. dilution reservoir) to achieve a final 1 mM starting concentration in the top dosage wells of the treatment plate (diluted 1:2 when transferred from the dilution reservoir to the treatment plate). Serial dilutions of 1:4 were made from wells 1 through 10 of the dilution reservoir prior to transfer to the treatment plate.
# (§5) The BARB4 stock solution (10.5 mg/ml) was prepared by dilution in complete media according to the table below for a final starting treatment concentration of 800 μg/ml. The 4 mM stock solution of cisplatin in 0.9% saline was diluted in complete media for a final starting treatment concentration of 1 mM.
# (§6) Cells were exposed to BARB4 or cisplatin for a 24 hr period. The plates were incubated overnight at 37° C. At 24 hr and 48 hr post-treatment, the MTT assay was performed as described below.
# (§7) The anti-proliferative activity of BARB4 and cisplatin was evaluated using the MTT cell proliferation assay (ATCC catalog #30-1010K). The assay is based on the reduction of yellow tetrazolium MTT (3-(4,5-dimethylthiazolyl-2)-2,5-diphenyltetrazolium bromide) by metabolically active cells forming purple formazan crystals. […]
# [2] = tested on: MDA-MB-231; test: MTT cell proliferation assay (Table 2); assay type: cell-based, human; settings: EC50
# Method: as §1, §2, §3, §4, §5, §6, §7
# [3] = tested on: H460; test: MTT cell proliferation assay (Table 2); assay type: cell-based, human; settings: EC50
# Method: as §1, §2, §3, §4, §5, §6, §7
# [4] = tested on: COLO 205; test: MTT cell proliferation assay (Table 2); assay type: cell-based, human; settings: EC50
# Method: as §1, §2, §3, §4, §5, §6, §7
# [5] = tested on: BxPC-3; test: MTT cell proliferation assay (Table 2); assay type: cell-based, human; settings: for IC50, BA4 (24 hr): MTT 24 hr post-treatment; for IC50, BA4 (48 hr): MTT 48 hr post-treatment
# Method: as §1, §2, §3, §4, §5, §6, §7
# [6] = tested on: Healthy Tissues: Esophagus; test: Immunohistochemistry (IHC) with biotinylated BARB4 on healthy tissue; assay type: binding, human; settings: epithelial, positive/negative
# Method: (§8) Immunohistochemistry with human IgG on human tissue naturally results in high background staining. Accordingly, BARB4 was labeled with biotin to reduce background.
# (§9) BARB4 antibody and an unrelated commercial IgG control (Chrompure IgG, Dianova) where labelled with “EZ-Link Maleimide-PEO Solid Phase Biotinylation Kit” from Pierce (Cat-# 21930) and Immunohistochemistry was initiated on different tumor tissue. Parrafin embedded tissue was first deparaffinized by treatment with Xylene 1 for 5 min, Xylene 2 for 5 min, followed by 100% Ethanol 1 for 5 min, 100% Ethanol 2 for 5 min, 70 ml Methanol+500 μl H2O2 for 7 min, 90% Ethanol 1 for 3 min, 90% Ethanol 2 for 3 min, 80% Ethanol 1 for 3 min, 80% Ethanol 2 for 3 min, 70% Ethanol 1 for 3 min, 70% Ethanol 2 for 3 min, and then washed three times with distilled H2O. (1 and 2 mean that the tissues were treated 2 times with the same alcohol, one after the another, in two different tanks.) Tissue was then heated in Citric acid, pH 5,5 in a water-bath at 99.9° C. for 20 min, placed in Tris/NaCl (Tris, 0.6 g/l and NaCl 8.1 g/l, pH 7.4) for 5 min, block with 0.5% BSA in PBS for 60 min, and then washed three times with Tris/NaCl (Tris, 0.6 g/l and NaCl 8.1 g/l, pH 7.4). Primary antibody (150 μl per microscope slide) was added, or a negative control biotinylated isotype matched control human antibody (Chrompure IgG, Dianova, Germany) or a positive controlanti-cytokeratin antibody, and incubated for 30 min in a humidified chamber at 37° C. Tissue was washed three times with Tris/NaCl (Tris, 0.6 g/l and NaCl 8.1 g/l, pH 7.4). Secondary antibody: (150 […]) was subsequently added and incubated for 30 min in a humidified chamber at room temperature (for biotinylated antibodies: NeurtrAvidin 1:100 in PBS), washed three times with Tris/NaCl (Tris, 0.6 g/l and NaCl 8.1 g/l, pH7.4), placed in PBS for 10 min. Tiusse was subsequently incubated with diaminobenzidine (0.05%)-hydrogen peroxide (0.02%) (150 μl per microscope slide) (Sigma, Taufkirchen, München, Germany) for 10 min, washed three times with H2O, washed once with distilled H2O, incubated with hematoxylin/eosin for 5 min, and placed under running tap water 10-15 min. Tissue was then washed again with distilled H2O, and the slides covered with Aquatex (Merck Bioscience).
# [7] = tested on: Healthy Tissues: Lung; test: as above; assay type: binding, human; settings: glandular, alveolar, positive/negative
# Method: as §8, §9
# [8] = tested on: Healthy Tissues: Pancreas; test: as above; assay type: binding, human; settings: glandular, positive/negative
# Method: as §8, §9
# [9] = BxPC-3, b280: really EC50 of total observed effect
molecule,measurement,setting,value
"BARB4: human IgG antibody produced by hybridoma DSMZ Deposit No. DSM ACC2876; heavy chain SEQ ID NOs:1, 3, 5, 7, light chain SEQ ID NO:9 (antibody, V domains shown) VH: QVQLVESGGGVVQPGRSLRLSCAASGFRFTTHGMHWVRQAPGKGLEWVAVISYNGRNKYYADYVNGRFTISRDDSRDTVFLQMNSLRPEDTAMYYCAKVRGDGYGDYGYFDYWGHGTLVSVSS VL: QSALTQPRSVSGSPGQSVTISCTGTYNYVSWYQQHPGKAPKLMIFDVSRRSSGVPDRFSGSKSGNTASLTISGLQAEDEADYYCCSYGGTYLYVFGTGTTVTVLGQ","IC50, BA4 (24 hr)",[1]; MTT 24 hr post-treatment,34.9 µg/mL
same,"IC50, BA4 (48 hr)",[1]; MTT 48 hr post-treatment,21.1 µg/mL
same,"IC50, BA4 (24 hr)",[2]; MTT 24 hr post-treatment,154 µg/mL
same,"IC50, BA4 (48 hr)",[2]; MTT 48 hr post-treatment,193 µg/mL
same,"IC50, BA4 (24 hr)",[3]; MTT 24 hr post-treatment,413 µg/mL
same,"IC50, BA4 (48 hr)",[3]; MTT 48 hr post-treatment,>800 µg/mL
same,"IC50, BA4 (24 hr)",[4]; MTT 24 hr post-treatment,66.8 µg/mL
same,"IC50, BA4 (48 hr)",[4]; MTT 48 hr post-treatment,2.78 µg/mL
same,"IC50, BA4 (24 hr)",[5]; [9],>800 µg/mL
same,"IC50, BA4 (48 hr)",[5]; [9],>800 µg/mL
same,"IC50, BA4 (24 hr)","[5]; BxPC-3 repeat, EC50",>800 µg/mL
same,"IC50, BA4 (48 hr)","[5]; BxPC-3 repeat, EC50",>800 µg/mL
same,Barb 4 +/−,[6],0/1
same,Barb 4 +/−,[7],0/3
same,Barb 4 +/−,[8],0/2
